{
  "source": "paper doi:10.1101/2020.10.02.324624",
  "target": "AmvR (Acinetobacter baumannii ATCC17978)",
  "assay": "SEC",
  "data": [
    {"substance": "AmvR (natural protein)", "values": [
      {"measurement": "stoichiometry N", "value": 2}
    ]}
  ]
}
